Biological target: αRXR co-transfected into HEK293 cells
Assay: cell-based or functional assay

induction of reporter activity in HEK293 cells co-transfected with αRXR, effector and reporter, compared to the untreated cells: 9 fold | reporter activity with αRXR co-transfected, compared to cells transfected with effector and reporter alone: 4 fold
Substance: Heliothis virescens ecdysone receptor (HEcR) as expressed from effector plasmid pcDNA3H3KHEcR

Reference: patent US20040058369A1
